Paper PMC9482650, “Quantitative fragmentomics allow affinity mapping of interactomes” (Nature Communications, 2022)

Experiments:
Assay in all cases: holdup assay
Design in all cases: key: below the threshold = too weak to quantify, mostly under pKd 3.1 to 4
IL16_4, Q14005 = target: IL16_4, Q14005
DFNB31_2, Q9P202 = target: T1, DFNB31_2, Q9P202
T1 sequence (Q9P202 274-371, limits assumed, looked up): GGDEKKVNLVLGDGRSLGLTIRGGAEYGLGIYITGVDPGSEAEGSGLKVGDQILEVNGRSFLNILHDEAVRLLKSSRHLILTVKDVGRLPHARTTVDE

DLG4_3, P78352 = target: DLG4_3, P78352
PARD3B_1, Q8TEW8 = target: T2, PARD3B_1, Q8TEW8
T2 sequence (Q8TEW8 196-299, limits assumed, looked up): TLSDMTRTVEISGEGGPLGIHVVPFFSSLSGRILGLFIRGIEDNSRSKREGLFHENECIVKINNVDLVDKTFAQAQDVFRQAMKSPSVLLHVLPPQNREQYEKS

Inadl_6, Q8NI35 = target: Inadl_6, Q8NI35
SNTA1, Q13424 = target: T3, SNTA1, Q13424
T3 sequence (Q13424 82-180, limits assumed, looked up): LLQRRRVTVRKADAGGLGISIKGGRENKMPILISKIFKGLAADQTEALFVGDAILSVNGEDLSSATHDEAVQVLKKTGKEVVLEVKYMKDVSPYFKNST

HTRA3, P83110 = target: T4, HTRA3, P83110
T4 sequence (P83110 354-453, limits assumed, looked up): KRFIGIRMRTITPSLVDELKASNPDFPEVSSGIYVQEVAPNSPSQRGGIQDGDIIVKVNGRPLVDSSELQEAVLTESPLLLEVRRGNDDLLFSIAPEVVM

LAP2, Q96RT1 = target: LAP2, Q96RT1
GRASP, Q7Z6J2 = target: GRASP, Q7Z6J2
MAGI2_4, Q86UL8 = target: MAGI2_4, Q86UL8
Inadl_2, Q8NI35 = target: Inadl_2, Q8NI35
APBA2_1, Q99767 = target: T5, APBA2_1, Q99767
T5 sequence (Q99767 563-664, limits assumed, looked up): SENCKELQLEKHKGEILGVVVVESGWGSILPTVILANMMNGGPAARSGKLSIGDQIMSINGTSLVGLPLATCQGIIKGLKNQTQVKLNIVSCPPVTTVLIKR

DLG3_2, Q92796 = target: T6, DLG3_2, Q92796
T6 sequence (Q92796 221-321, limits assumed, looked up): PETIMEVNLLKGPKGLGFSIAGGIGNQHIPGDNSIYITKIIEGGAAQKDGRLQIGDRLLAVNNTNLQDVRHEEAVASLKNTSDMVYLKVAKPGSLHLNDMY

NHERF2_2, Q15599 = target: NHERF2_2, Q15599
MPP6, Q9NZW5 = target: T7, MPP6, Q9NZW5
T7 sequence (Q9NZW5 125-219, limits assumed, looked up): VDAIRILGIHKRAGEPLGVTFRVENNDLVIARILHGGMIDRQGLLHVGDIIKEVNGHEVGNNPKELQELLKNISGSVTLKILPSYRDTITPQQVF

APBA3_1, O96018 = target: T8, APBA3_1, O96018
T8 sequence (O96018 389-490, limits assumed, looked up): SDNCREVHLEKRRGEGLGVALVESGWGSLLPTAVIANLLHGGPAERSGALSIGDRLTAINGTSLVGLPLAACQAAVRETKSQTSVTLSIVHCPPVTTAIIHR

HTRA1, Q92743 = target: HTRA1, Q92743
LNX1_2, Q8TBB1 = target: LNX1_2, Q8TBB1
DLG3_3, Q92796 = target: T9, DLG3_3, Q92796
T9 sequence (Q92796 374-475, limits assumed, looked up): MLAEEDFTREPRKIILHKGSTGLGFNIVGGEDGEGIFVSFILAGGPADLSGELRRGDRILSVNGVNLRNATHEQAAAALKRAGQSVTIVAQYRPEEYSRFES

SCRIB_1, Q14160 = target: SCRIB_1, Q14160
MAST1, Q9Y2H9 = target: MAST1, Q9Y2H9
GRIP2_5, Q9C0E4 = target: GRIP2_5, Q9C0E4
Inadl_9, Q8NI35 = target: Inadl_9, Q8NI35
SNTG1, Q9NSN8 = target: T10, SNTG1, Q9NSN8
T10 sequence (Q9NSN8 52-150, limits assumed, looked up): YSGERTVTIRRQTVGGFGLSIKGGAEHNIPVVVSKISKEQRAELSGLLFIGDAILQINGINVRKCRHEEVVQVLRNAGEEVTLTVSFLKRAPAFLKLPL

IL16_1, Q14005 = target: IL16_1, Q14005
DFNB31_3, Q9P202 = target: T11, DFNB31_3, Q9P202
T11 sequence (Q9P202 811-907, limits assumed, looked up): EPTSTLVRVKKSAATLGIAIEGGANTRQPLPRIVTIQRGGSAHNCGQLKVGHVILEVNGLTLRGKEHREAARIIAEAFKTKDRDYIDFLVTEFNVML

[1] = plain residues with an end cap or a label only (N-terminal biotin on a linker: ado-ado)
[2] = plain residues with an end cap or a label only (N-terminal biotin on a linker: ahx)

Sequence of LNX1_2, Q8TBB1 (Q8TBB1 371-470): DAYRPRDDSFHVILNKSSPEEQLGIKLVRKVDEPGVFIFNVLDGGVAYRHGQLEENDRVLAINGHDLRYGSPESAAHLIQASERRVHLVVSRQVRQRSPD
Sequence of MAGI2_4, Q86UL8 (Q86UL8 772-865): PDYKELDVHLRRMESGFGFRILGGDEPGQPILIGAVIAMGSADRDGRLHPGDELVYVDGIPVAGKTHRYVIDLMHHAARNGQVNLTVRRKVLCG
Sequence of SCRIB_1, Q14160 (Q14160 718-814): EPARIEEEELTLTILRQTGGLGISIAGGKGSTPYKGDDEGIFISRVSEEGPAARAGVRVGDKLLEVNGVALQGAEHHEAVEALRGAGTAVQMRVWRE
Sequence of LAP2, Q96RT1 (Q96RT1 other isoform, or with tags, fused parts or gaps): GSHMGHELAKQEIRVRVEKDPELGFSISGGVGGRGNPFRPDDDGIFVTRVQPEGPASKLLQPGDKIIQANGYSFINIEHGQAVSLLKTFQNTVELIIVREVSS
Sequence of IL16_4, Q14005 (Q14005 1229-1329): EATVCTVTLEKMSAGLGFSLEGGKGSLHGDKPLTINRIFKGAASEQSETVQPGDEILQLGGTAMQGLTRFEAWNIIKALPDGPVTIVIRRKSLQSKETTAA
Sequence of IL16_1, Q14005 (Q14005 210-306): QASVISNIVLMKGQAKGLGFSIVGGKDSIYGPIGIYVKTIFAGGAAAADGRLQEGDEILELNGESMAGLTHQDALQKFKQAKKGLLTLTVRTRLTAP
Sequence of HTRA1, Q92743 (Q92743 360-477): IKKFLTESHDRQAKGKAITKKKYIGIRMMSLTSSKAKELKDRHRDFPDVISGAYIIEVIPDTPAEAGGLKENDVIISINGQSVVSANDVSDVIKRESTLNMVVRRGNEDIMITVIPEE
Sequence of GRASP, Q7Z6J2 (Q7Z6J2 96-193): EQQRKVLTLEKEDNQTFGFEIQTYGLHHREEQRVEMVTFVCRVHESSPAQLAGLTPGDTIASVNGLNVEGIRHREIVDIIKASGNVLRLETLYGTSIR
Sequence of GRIP2_5, Q9C0E4 (Q9C0E4 544-642): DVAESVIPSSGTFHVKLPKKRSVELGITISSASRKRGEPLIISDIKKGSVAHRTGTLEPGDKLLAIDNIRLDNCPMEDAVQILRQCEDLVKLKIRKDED
Sequence of NHERF2_2, Q15599 (Q15599 142-238): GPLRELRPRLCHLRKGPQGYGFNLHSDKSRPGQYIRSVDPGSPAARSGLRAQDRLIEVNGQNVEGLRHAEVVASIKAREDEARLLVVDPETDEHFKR
Sequence of Inadl_6, Q8NI35 (Q8NI35 1058-1167): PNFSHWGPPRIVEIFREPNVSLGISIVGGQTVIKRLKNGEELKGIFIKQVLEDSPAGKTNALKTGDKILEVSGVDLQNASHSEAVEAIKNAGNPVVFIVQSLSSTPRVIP
Sequence of Inadl_2, Q8NI35 (Q8NI35 238-335): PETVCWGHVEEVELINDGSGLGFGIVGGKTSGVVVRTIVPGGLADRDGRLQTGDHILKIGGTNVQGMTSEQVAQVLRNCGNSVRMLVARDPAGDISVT
Sequence of MAST1, Q9Y2H9 (Q9Y2H9 962-1065): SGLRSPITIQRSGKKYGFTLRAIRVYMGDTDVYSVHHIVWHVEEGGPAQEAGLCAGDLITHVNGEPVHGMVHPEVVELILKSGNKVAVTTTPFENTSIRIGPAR
Sequence of Inadl_9, Q8NI35 (Q8NI35 1530-1615): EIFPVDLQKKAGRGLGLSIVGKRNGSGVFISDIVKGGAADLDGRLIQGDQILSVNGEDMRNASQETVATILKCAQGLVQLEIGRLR
Sequence of DLG4_3, P78352 (P78352 306-403): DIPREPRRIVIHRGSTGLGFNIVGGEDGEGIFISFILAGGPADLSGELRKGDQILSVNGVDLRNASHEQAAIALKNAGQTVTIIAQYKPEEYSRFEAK

Binder: VLYPREGTEV [FOXI1, Q12951]
- pKd (IL16_4, Q14005; [1]): below the threshold
- pKd (DFNB31_2, Q9P202; [1]): below the threshold
- pKd (DLG4_3, P78352; [1]): 3.57
- pKd (PARD3B_1, Q8TEW8; [1]): below the threshold
- pKd (Inadl_6, Q8NI35; [1]): below the threshold
- pKd (SNTA1, Q13424; [1]): 4.02
- pKd (HTRA3, P83110; [1]): below the threshold
- pKd (LAP2, Q96RT1; [1]): 3.52
- pKd (GRASP, Q7Z6J2; [1]): 4.31
- pKd (MAGI2_4, Q86UL8; [1]): 4.98
- pKd (Inadl_2, Q8NI35; [1]): below the threshold
- pKd (APBA2_1, Q99767; [1]): below the threshold
- pKd (DLG3_2, Q92796; [1]): 4.59
- pKd (NHERF2_2, Q15599; [1]): 3.48
- pKd (MPP6, Q9NZW5; [1]): below the threshold
- pKd (APBA3_1, O96018; [1]): below the threshold
- pKd (HTRA1, Q92743; [1]): 4.64
- pKd (LNX1_2, Q8TBB1; [1]): 3.6
- pKd (DLG3_3, Q92796; [1]): 3.8
- pKd (SCRIB_1, Q14160; [1]): 3.99
- pKd (MAST1, Q9Y2H9; [1]): 4.74
- pKd (GRIP2_5, Q9C0E4; [1]): below the threshold
- pKd (Inadl_9, Q8NI35; [1]): 4.03
- pKd (SNTG1, Q9NSN8; [1]): 4.13
- pKd (IL16_1, Q14005; [1]): 4
- pKd (DFNB31_3, Q9P202; [1]): below the threshold

Binder: RDPPAEWTRV [PTPN18, Q99952]
- pKd (IL16_4, Q14005; [1]): 3.6
- pKd (DFNB31_2, Q9P202; [1]): below the threshold
- pKd (DLG4_3, P78352; [1]): below the threshold
- pKd (PARD3B_1, Q8TEW8; [1]): 4.03
- pKd (Inadl_6, Q8NI35; [1]): below the threshold
- pKd (SNTA1, Q13424; [1]): 4.39
- pKd (HTRA3, P83110; [1]): below the threshold
- pKd (LAP2, Q96RT1; [1]): 4.02
- pKd (GRASP, Q7Z6J2; [1]): 4.66
- pKd (MAGI2_4, Q86UL8; [1]): 3.48
- pKd (Inadl_2, Q8NI35; [1]): below the threshold
- pKd (APBA2_1, Q99767; [1]): below the threshold
- pKd (DLG3_2, Q92796; [1]): 4.2
- pKd (NHERF2_2, Q15599; [1]): 4.45
- pKd (MPP6, Q9NZW5; [1]): below the threshold
- pKd (APBA3_1, O96018; [1]): below the threshold
- pKd (HTRA1, Q92743; [1]): 4.4
- pKd (LNX1_2, Q8TBB1; [1]): 3.47
- pKd (DLG3_3, Q92796; [1]): below the threshold
- pKd (SCRIB_1, Q14160; [1]): 4.1
- pKd (MAST1, Q9Y2H9; [1]): 4.97
- pKd (GRIP2_5, Q9C0E4; [1]): below the threshold
- pKd (Inadl_9, Q8NI35; [1]): 3.66
- pKd (SNTG1, Q9NSN8; [1]): below the threshold
- pKd (IL16_1, Q14005; [1]): below the threshold
- pKd (DFNB31_3, Q9P202; [1]): below the threshold

Binder: EKQAKGDTEF [CACYBP, Q9HB71]
- pKd (IL16_4, Q14005; [2]): below the threshold
- pKd (DFNB31_2, Q9P202; [2]): below the threshold
- pKd (DLG4_3, P78352; [2]): below the threshold
- pKd (PARD3B_1, Q8TEW8; [2]): below the threshold
- pKd (Inadl_6, Q8NI35; [2]): below the threshold
- pKd (SNTA1, Q13424; [2]): below the threshold
- pKd (HTRA3, P83110; [2]): below the threshold
- pKd (LAP2, Q96RT1; [2]): below the threshold
- pKd (GRASP, Q7Z6J2; [2]): below the threshold
- pKd (MAGI2_4, Q86UL8; [2]): below the threshold
- pKd (Inadl_2, Q8NI35; [2]): below the threshold
- pKd (APBA2_1, Q99767; [2]): below the threshold
- pKd (DLG3_2, Q92796; [2]): below the threshold
- pKd (NHERF2_2, Q15599; [2]): 3.55
- pKd (MPP6, Q9NZW5; [2]): below the threshold
- pKd (APBA3_1, O96018; [2]): below the threshold
- pKd (HTRA1, Q92743; [2]): below the threshold
- pKd (LNX1_2, Q8TBB1; [2]): below the threshold
- pKd (DLG3_3, Q92796; [2]): below the threshold
- pKd (SCRIB_1, Q14160; [2]): below the threshold
- pKd (MAST1, Q9Y2H9; [2]): below the threshold
- pKd (GRIP2_5, Q9C0E4; [2]): below the threshold
- pKd (Inadl_9, Q8NI35; [2]): below the threshold
- pKd (SNTG1, Q9NSN8; [2]): below the threshold
- pKd (IL16_1, Q14005; [2]): below the threshold
- pKd (DFNB31_3, Q9P202; [2]): below the threshold

Binder: MHIQEKGFHV [EPHA6, Q9UF33]
- pKd (IL16_4, Q14005; [1]): 3.55
- pKd (DFNB31_2, Q9P202; [1]): below the threshold
- pKd (DLG4_3, P78352; [1]): below the threshold
- pKd (PARD3B_1, Q8TEW8; [1]): 4.89
- pKd (Inadl_6, Q8NI35; [1]): below the threshold
- pKd (SNTA1, Q13424; [1]): below the threshold
- pKd (HTRA3, P83110; [1]): 3.61
- pKd (LAP2, Q96RT1; [1]): below the threshold
- pKd (GRASP, Q7Z6J2; [1]): below the threshold
- pKd (MAGI2_4, Q86UL8; [1]): below the threshold
- pKd (Inadl_2, Q8NI35; [1]): below the threshold
- pKd (APBA2_1, Q99767; [1]): below the threshold
- pKd (DLG3_2, Q92796; [1]): below the threshold
- pKd (NHERF2_2, Q15599; [1]): below the threshold
- pKd (MPP6, Q9NZW5; [1]): below the threshold
- pKd (APBA3_1, O96018; [1]): below the threshold
- pKd (HTRA1, Q92743; [1]): 4.61
- pKd (LNX1_2, Q8TBB1; [1]): 3.77
- pKd (DLG3_3, Q92796; [1]): below the threshold
- pKd (SCRIB_1, Q14160; [1]): below the threshold
- pKd (MAST1, Q9Y2H9; [1]): 3.69
- pKd (GRIP2_5, Q9C0E4; [1]): below the threshold
- pKd (Inadl_9, Q8NI35; [1]): below the threshold
- pKd (SNTG1, Q9NSN8; [1]): below the threshold
- pKd (IL16_1, Q14005; [1]): below the threshold
- pKd (DFNB31_3, Q9P202; [1]): 4.07
